Tests used:
human platelet factor 4 = experiment: ELISA-qPCR; details: PF4-coated wells; N = 6, two independent repeats; bar labelled Ad5-ΔfX; parent: est. 1.7e5; read off a plot
[1] = target: human platelet factor 4 (human)
[2] = target: adenovirus type 5 vector particles (wild-type capsid) (human adenovirus type 5); experiment: SPR; MP-SPR 220A, CMD 2D sensor, viruses amine-coupled, 22°C; PF4 at 7 μg/mL (900 nM) in pure PBS without passivating agents, 600 s injection, then flush

Substance: adenovirus type 5 vector particles (wild-type capsid) (from UniProt P06496) T425A
- response (number of bound VPs) (human platelet factor 4): 290000

Substance: adenovirus type 5 vector particles (wild-type capsid), P06496 1-107
- VP uptake in A549 cells (internalized Ad genomes by qPCR, 3 hpi, 20 vpc) after incubation with 10 μg/mL PF4 [1]: 3 fold

Substance: adenovirus type 11 vector particles (complex)
- VP uptake in A549 cells (internalized Ad genomes by qPCR, 3 hpi, 20 vpc) after incubation with 10 μg/mL PF4 [1]: 1.6 fold

Substance: adenovirus type 13 vector particles (complex)
- VP uptake in A549 cells (internalized Ad genomes by qPCR, 3 hpi, 20 vpc) after incubation with 10 μg/mL PF4 [1]: 1.6 fold

Substance: adenovirus type 69 vector particles (complex)
- VP uptake in A549 cells (internalized Ad genomes by qPCR, 3 hpi, 20 vpc) after incubation with 10 μg/mL PF4 [1]: 3 fold

Substance: human platelet factor 4 (natural protein)
- Kd [2]: 1050 nM

— paper PMC12775996
